{"source": "patent US20260055200A1", "about": "“COMBINATION THERAPIES” (Alligator Bioscience AB, priority 2022, published 2026)", "molecules": {"B1": {"name": "Mitazalimab: agonistic, human monoclonal (IgG1) antibody targeting CD40 (antibody, chains of the INN, looked up, V domains shown)", "VH": "EVQLLESGGGLVQPGGSLRLSCAASGFTFSTYGMHWVRQAPGKGLEWLSYISGGSSYIFYADSVRGRFTISRDNSENALYLQMNSLRAEDTAVYYCARILRGGSGMDLWGQGTLVTVSS", "VL": "QSVLTQPPSASGTPGQRVTISCTGSSSNIGAGYNVYWYQQLPGTAPKLLIYGNINRPSGVPDRFSGSKSGTSASLAISGLRSEDEADYYCAAWDKSISGLVFGGGTKLTVL"}}, "key": {"[1]": {"test_system": "IFN-γ, MCP-1, B cell margination, B cell activation", "assay": "OPTIMIZE-1 peripheral blood pharmacodynamics (cytokines/chemokines, immunophenotyping)", "assay_type": "in vivo, human", "settings": "450 and 900 μg/kg mitazalimab", "source_text": "The aim with the pharmacodynamic biomarkers is to characterize changes in intratumoural and systemic immune activation associated with mode of action of mitazalimab and correlate pharmacodynamic effects with clinical response. Disease progression and treatment response will also be followed with liquid biopsies, analysing biomarkers such as Carbohydrate antigen 19-9 (CA19-9) and circulating tumour DNA (ctDNA). All biomarker analyses in blood and tumour biopsies may be exploratory in nature. All exploratory analyses were performed at a fit-for-purpose laboratory, as the data from the analyses are for scientific use and decision making only. […]\nDifferent types of blood samples will be taken and the following pharmacodynamic biomarkers may be evaluated: • Cytokines and chemokines: Serum samples are to be analysed for levels of cytokines and chemokines involved in the immune activation of mitazalimab, including but not limited to IFN-γ, TNF-α, IL12p70, IL-6, MCP-1, IP-10, MIP-1α, MIP-1β and IL-8; e.g., using a 30-plex kit with Luminex, MSD or similar. • Immune phenotyping: Whole blood samples will be used for immunophenotyping of whole blood for quantification of immune cell populations and immune cell activation directly or indirectly involved with immune activation of mitazalimab using flow cytometry. […]"}, "CD40": {"molecular_target": "T1, CD40 (Homo sapiens, UniProt P25942)", "T1 construct": "validated in vitro in human monocyte-derived DC cultures; endogenous in cells; host or cells: human monocyte-derived dendritic cells", "T1 sequence (P25942 21-277)": "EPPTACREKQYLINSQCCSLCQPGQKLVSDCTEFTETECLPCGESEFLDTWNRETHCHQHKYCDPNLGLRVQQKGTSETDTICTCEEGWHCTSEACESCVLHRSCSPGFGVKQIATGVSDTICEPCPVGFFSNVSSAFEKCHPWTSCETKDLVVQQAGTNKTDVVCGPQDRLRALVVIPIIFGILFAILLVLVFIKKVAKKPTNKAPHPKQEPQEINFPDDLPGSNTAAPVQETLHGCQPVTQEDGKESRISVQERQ", "settings": "human monocyte-derived DC cultures; cited from earlier work"}, "[2]": {"test_system": "tumour associated macrophages (TAMs)", "settings": "TAMs from human prostate and ovarian tumour samples; cited from earlier work"}, "[3]": {"test_system": "human tumours transplanted into NSG mice; bladder cancer cells in hCD40tg mice", "settings": "cited from earlier work"}, "[4]": {"test_system": "CD40-mediated immune cell activation", "settings": "cited from earlier work"}}, "data": [{"molecule": "B1", "values": [{"measurement": "cytokines and chemokines (IFN-γ, MCP-1) in peripheral blood", "setting": "[1]", "value": "increases in peripheral blood were observed"}, {"measurement": "activation markers (CD80, CD86) on DCs and release of IL-12", "setting": "CD40", "value": "up-regulation of activation markers on the surface of DCs"}, {"measurement": "polarization of TAMs (upregulation of e.g. CD83)", "setting": "[2]", "value": "from a more immune-suppressive phenotype into a more immune-inflammatory phenotype"}, {"measurement": "immunity to tumour re-challenge", "setting": "[3]; bladder cancer cells in hCD40tg mice", "value": "at least 5 months"}, {"measurement": "effect on tumour growth and survival in combination", "setting": "[3]; combined with checkpoint inhibitors, vaccination or chemotherapy (e.g. mFOLFIRINOX), hCD40tg mice", "value": "synergistically enhanced effect"}, {"measurement": "anti-tumour efficacy in vivo", "setting": "[3]; human tumours in NSG mice and hCD40tg mice", "value": "immune-mediated and antibody-dependent cell-mediated cytotoxicity (ADCC)-dependent anti-tumour efficacy"}, {"measurement": "NK cells and T cells in peripheral blood after infusion", "setting": "[4]; all doses except 75 μg/kg", "value": "decreased"}, {"measurement": "B cells in peripheral blood after IV administration", "setting": "[4]; all doses tested, dose-dependent recovery", "value": "margination of B cells was observed"}, {"measurement": "time of peak of peripheral MCP-1, IP-10 and MIP-1B chemokines post-infusion", "setting": "[4]; in vivo, ip", "value": "1 to 4", "unit": "h"}, {"measurement": "CD40 receptor occupancy on B cells", "setting": "[4]; in vivo", "value": "dose dependent"}, {"measurement": "IL-6 levels following infusion", "setting": "[4]; in vivo", "value": "not elevated"}, {"measurement": "duration of CD40 engagement post administration", "setting": "[4]; in vivo", "value": "through Day 8"}, {"measurement": "recovery of NK cell and T cell levels", "setting": "[4]; in vivo", "value": "fully recovered by study Day 8"}]}]}
